Data reported in patent publication US20150203840A1 (ARGEN X N V, published 2015).
Changes are numbered by the printed parent chain. One block for each binder: values may come before it.

Assays:
cyno IL22R ECD (cyno) [1] = assay: ELISA, mAb coated at 100 ng/ml, biotinylated cyno IL22R ECD at 100 ng/ml, streptavidin-HRP
cyno IL22R ECD (cyno) [2] = assay: ELISA, mAb coated at 100 ng/ml, biotinylated cyno IL22R ECD at 2 ng/ml, streptavidin-HRP
[3] = molecular target: T1, recombinant mouse IL22R1 (mouse IL22R ECD) (mouse) (UniProt Q80XZ4); assay: ELISA, mAb coated at 100 ng/ml, biotinylated mouse IL22R ECD at 100 ng/ml, streptavidin-HRP
T1 sequence (biotinylated in the ELISA of Table 4, looked up): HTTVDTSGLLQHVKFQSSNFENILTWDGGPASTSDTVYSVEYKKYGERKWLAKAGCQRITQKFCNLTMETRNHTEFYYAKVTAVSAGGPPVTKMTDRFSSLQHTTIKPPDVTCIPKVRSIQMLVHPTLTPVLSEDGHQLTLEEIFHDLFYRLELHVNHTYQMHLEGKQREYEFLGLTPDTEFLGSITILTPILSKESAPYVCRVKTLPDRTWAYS

[4] = molecular target: T2, recombinant human IL22R1 (human IL22R ECD) (human) (UniProt Q8N6P7); assay: Biacore, immobilized human IL22R ECD
T2 sequence (biotinylated in the ELISA of Table 4, looked up): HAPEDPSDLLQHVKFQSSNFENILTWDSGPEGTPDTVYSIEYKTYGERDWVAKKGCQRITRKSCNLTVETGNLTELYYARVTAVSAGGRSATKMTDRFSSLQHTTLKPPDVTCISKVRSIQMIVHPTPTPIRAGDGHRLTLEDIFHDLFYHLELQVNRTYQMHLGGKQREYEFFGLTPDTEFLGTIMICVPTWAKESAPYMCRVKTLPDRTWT

[5] = molecular target: T2, recombinant human IL22R1 (human IL22R ECD) (human); assay: ELISA, mAb coated at 100 ng/ml, biotinylated human IL22R ECD at 100 ng/ml, streptavidin-HRP
[6] = molecular target: T3, rhesus IL22R ECD (rhesus) (UniProt G7MHN4); assay: ELISA, mAb coated at 100 ng/ml, biotinylated rhesus IL22R ECD at 2 ng/ml, streptavidin-HRP
T3 sequence (chain, biotinylated): T2 sequence (biotinylated in the ELISA of Table 4, looked up) with S18N, L73H, S99N, T105A, S115P, K167E, A194S, E196K, K205R

[7] = molecular target: T3, rhesus IL22R ECD (rhesus); assay: ELISA, mAb coated at 100 ng/ml, biotinylated rhesus IL22R ECD at 100 ng/ml, streptavidin-HRP
[8] = molecular target: T1, recombinant mouse IL22R1 (mouse IL22R ECD) (mouse); assay: Biacore, immobilized mouse IL22R ECD
[9] = molecular target: T2, recombinant human IL22R1 (human IL22R ECD) (human); assay: ELISA, mAb coated at 100 ng/ml, biotinylated human IL22R ECD at 2 ng/ml, streptavidin-HRP
[10] = molecular target: T1, recombinant mouse IL22R1 (mouse IL22R ECD) (mouse); assay: ELISA, mAb coated at 100 ng/ml, biotinylated mouse IL22R ECD at 2 ng/ml, streptavidin-HRP
[11] = molecular target: T4, recombinant human IL22R1 (human IL22R ECD) (human, UniProt Q8N6P7 16-228, biotinylated in the ELISA of Table 4); assay: Biacore, hIL22R
T4 construct: extracellular domain; also called hIL22R; human Interleukin 22 receptor
T4 sequence (looked up): T2 sequence (biotinylated in the ELISA of Table 4, looked up)

[12] = molecular target: T5, human IL22R on BW-hIL22R cells (human, UniProt Q8N6P7 16-574); assay: cell-based or functional assay
T5 sequence (looked up): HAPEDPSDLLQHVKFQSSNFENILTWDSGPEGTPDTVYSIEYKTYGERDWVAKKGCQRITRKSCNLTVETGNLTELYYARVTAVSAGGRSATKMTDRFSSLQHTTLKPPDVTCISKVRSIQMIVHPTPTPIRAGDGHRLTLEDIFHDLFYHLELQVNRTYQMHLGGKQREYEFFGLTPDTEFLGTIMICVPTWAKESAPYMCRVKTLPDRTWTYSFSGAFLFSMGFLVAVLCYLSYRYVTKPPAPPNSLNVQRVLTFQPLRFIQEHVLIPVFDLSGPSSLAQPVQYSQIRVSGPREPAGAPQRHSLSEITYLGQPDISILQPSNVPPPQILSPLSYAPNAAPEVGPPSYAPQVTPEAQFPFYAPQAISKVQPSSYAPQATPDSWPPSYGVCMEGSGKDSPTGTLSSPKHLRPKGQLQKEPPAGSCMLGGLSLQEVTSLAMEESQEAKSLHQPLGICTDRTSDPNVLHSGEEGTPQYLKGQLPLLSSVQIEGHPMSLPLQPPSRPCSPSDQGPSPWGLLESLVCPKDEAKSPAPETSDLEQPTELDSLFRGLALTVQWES

[13] = molecular target: T5, human IL22R on BW-hIL22R cells; assay: cell-based or functional assay; remark: listed apart in the source
[14] = molecular target: T6, recombinant mouse IL22R1 (mouse IL22R ECD) (mouse, UniProt Q80XZ4 16-230, biotinylated in the ELISA of Table 4); assay: Biacore, mIL22R
T6 construct: extracellular domain; also called mIL22R; mIL22R1
T6 sequence (looked up): T1 sequence (biotinylated in the ELISA of Table 4, looked up)

[15] = molecular target: T7, mouse IL22R on BaF3-mIL22R cells (mouse, UniProt Q80XZ4 16-581); assay: cell-based or functional assay
T7 sequence (looked up): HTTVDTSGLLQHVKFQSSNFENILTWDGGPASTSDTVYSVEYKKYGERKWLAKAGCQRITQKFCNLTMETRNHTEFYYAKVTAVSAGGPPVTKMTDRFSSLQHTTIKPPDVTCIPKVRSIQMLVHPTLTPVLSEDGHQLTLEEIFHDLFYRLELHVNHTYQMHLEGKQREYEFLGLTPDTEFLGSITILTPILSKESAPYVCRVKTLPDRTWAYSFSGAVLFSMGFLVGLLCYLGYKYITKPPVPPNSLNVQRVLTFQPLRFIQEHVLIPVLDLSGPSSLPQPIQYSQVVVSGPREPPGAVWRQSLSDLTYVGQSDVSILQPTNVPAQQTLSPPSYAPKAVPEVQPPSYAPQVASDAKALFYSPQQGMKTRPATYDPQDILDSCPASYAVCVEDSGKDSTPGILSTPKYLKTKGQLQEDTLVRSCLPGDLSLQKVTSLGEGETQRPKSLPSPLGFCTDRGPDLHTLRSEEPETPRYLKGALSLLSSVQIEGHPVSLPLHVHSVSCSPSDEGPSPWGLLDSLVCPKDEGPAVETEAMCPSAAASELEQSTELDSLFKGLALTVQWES

[16] = molecular target: T6, recombinant mouse IL22R1 (mouse IL22R …); assay: screening of clones selected on mouse IL22R; method not detailed

Absorption at 620 nm (relative absorption units) (cyno IL22R ECD (cyno) [1]): 2.66
Absorption at 620 nm (relative absorption units) (cyno IL22R ECD (cyno) [2]): 1.36
Absorption at 620 nm (relative absorption units) [3]: 2.36
Kd [4]: 1.9 pM
koff [4]: 3.1e-07 s⁻¹
kon [4]: 160000 M⁻¹ s⁻¹
Absorption at 620 nm (relative absorption units) [5]: 2.93
Absorption at 620 nm (relative absorption units) [6]: 1.17
Absorption at 620 nm (relative absorption units) [7]: 2.77
Kd [8]: 7 pM
koff [8]: 1e-06 s⁻¹
kon [8]: 150000 M⁻¹ s⁻¹
Absorption at 620 nm (relative absorption units) [9]: 1
Absorption at 620 nm (relative absorption units) [10]: 0.172
B1: 205A5 (antibody, part only; not given: parental light chain variable domain, V domains shown, part only)
VH: QVQLVESGGGLVQPGGSLRLSCAASGFTFNSYEMYWVRQAPGKGLEWVSGITADGGYTYYADSVKGRFTMSRDNAKNTLYLQMNSLKPEDTALYYCANLWNDYWGQGTQVIVSS

Absorption at 620 nm (relative absorption units) (cyno IL22R ECD (cyno) [1]): 2.18
Absorption at 620 nm (relative absorption units) [3]: 2.36
Kd [4]: 420 pM
koff [4]: 0.00028 s⁻¹
kon [4]: 670000 M⁻¹ s⁻¹
Absorption at 620 nm (relative absorption units) [5]: 2.57
Absorption at 620 nm (relative absorption units) [6]: 1.97
Absorption at 620 nm (relative absorption units) [7]: 2.59
Kd [8]: 1800 pM
koff [8]: 0.00048 s⁻¹
kon [8]: 260000 M⁻¹ s⁻¹
Absorption at 620 nm (relative absorption units) [9]: 1.03
Absorption at 620 nm (relative absorption units) [10]: 1.86
B2: 205A9 (antibody, part only; not given: parental heavy chain variable domain, V domains shown, part only)
VL: HSAVTQPSAVSVSLGQTARITCQGGNFGSYYASWYQQKPGQAPVLVIYDDDRRPSGIPERFSGSSSGGRSTLTISGAQSGDEGDYYCQSADLSGNPVFGGGTHLTVL

Kd [11]: 120 pM
Potency (pM) BW-hIL22R [12]: 106 pM
IC50 pM (potency on human IL22R expressing cells) [13]: ~106 pM
B3: 170B2 (antibody, V domains shown)
VH: EVQLVESGGGLVQPGGSLRLSCAASGFTFSSSWMYWVRQAPGKGLEFVSVINTRSGITHYVESVKGRFTISTDNAKNTLFLQMNSLKSEDTAVYYCATRIQGLIDYWGQGTQVTVSS
VL: DIVMTQSPSSLSVSLGDRVTITCQASQSIGSVNALAWYQQKPGQSLKLLIHGASRLQTGVPSRFSGSGSGTSFTLAISGVEAEDLATYYCLQDYAWPLTFGQGTKVELK
notes: Llama-derived parental clone; also called VH_170B2; VK_170B2

Kd [14]: 450 pM
Kd [11]: 80 pM
Potency (pM) BW-hIL22R [12]: 67 pM
Potency (pM) BaF3-mIL22R [15]: 870 pM
IC50 pM (potency on human IL22R expressing cells) [13]: 67 pM
B4: 196C2 (antibody, V domains shown)
VH: B3 VH
VL: DIQMTQSPSSLSASLGDRVTITCQASQSISSLLAWYQQKPGQAPKLLIYGASRLQTGVPSRFSGSGSGTSFTLTISGVEAEDLATYYCLQDYSWPLTFGQGTKVELK
notes: Vkappa-shuffled clone of 170B2 (keeps the 170B2 VH-CH1); also called VK_196C2

Kd [14]: 450 pM
Kd [11]: 290 pM
Potency (pM) BW-hIL22R [12]: 124 pM
Potency (pM) BaF3-mIL22R [15]: 790 pM
IC50 pM (potency on human IL22R expressing cells) [13]: 124 pM
B5: 197G10 (antibody, V domains shown)
VH: B3 VH
VL: DIQMTQSPSSMSASLGDSVTISCQASENIGTQLFWYQQNAGQPPKLLIYGASRLQTGVPSRFSGSGSGTTFTLTISGVETGDLATYYCLQDYSWPLTFGQGTKVELK
notes: Vkappa-shuffled clone of 170B2 (keeps the 170B2 VH-CH1); also called VK_197G10

binding result [16]: binds
IC50 pM (potency on human IL22R expressing cells) [13]: 132 pM
B6: 198G11 (antibody, V domains shown)
VH: B3 VH
VL: DIVMTQSPSSLSASLGDRVTVTCQASQSIRSSLNWYQQKPGQAPKLLIYGASRLRIGVPSRFSGSASGTSFTLTISGVESEDLATYYCLQDYTWPLSFGSGTRLEIK
notes: Vkappa-shuffled clone of 170B2 (keeps the 170B2 VH-CH1); also called VK_198G11

binding result [16]: binds
IC50 pM (potency on human IL22R expressing cells) [13]: 89 pM
B7: 198C9 (antibody, V domains shown)
VH: B3 VH
VL: DIVMTQSPSSLSASLGDRVTITCQATQSISTFLSWYQQKPGQTPKLLVYGASRLQTGVPSRFSGTGSGTKFTLTISGVEAEDLASYFCLQDYSWPLTFGQGTKVELK
notes: Vkappa-shuffled clone of 170B2 (keeps the 170B2 VH-CH1); also called VK_198C9

binding result [16]: binds
B8: 198B7 (antibody, V domains shown)
VH: B3 VH
VL: B4 VL with L32Q
notes: Vkappa-shuffled clone of 170B2 (keeps the 170B2 VH-CH1); also called VK_198B7

Kd [14]: 370 pM
Kd [11]: 89 pM
Potency (pM) BW-hIL22R [12]: 57 pM
IC50 pM (potency on human IL22R expressing cells) [13]: 57 pM
B9: 197D3 (antibody, V domains shown)
VH: B3 VH
VL: B4 VL with I21V, S30R, L32S, A34N, Q55R, T56I, G66A, D91E, S93A
notes: Vkappa-shuffled clone of 170B2 (keeps the 170B2 VH-CH1); also called VK_197D3

Kd [14]: 310 pM
Kd [11]: 10 pM
Potency (pM) BW-hIL22R [12]: 87 pM
Potency (pM) BaF3-mIL22R [15]: 105 pM
IC50 pM (potency on human IL22R expressing cells) [13]: 87 pM
B10: 196F8 (antibody, V domains shown)
VH: B3 VH
VL: B4 VL with L32M, K45N, G66R
notes: Vkappa-shuffled clone of 170B2 (keeps the 170B2 VH-CH1); also called VK_196F8

Kd [14]: 390 pM
Kd [11]: 38 pM
Potency (pM) BW-hIL22R [12]: 69 pM
Potency (pM) BaF3-mIL22R [15]: 160 pM
IC50 pM (potency on human IL22R expressing cells) [13]: 69 pM
B11: 197B7 (antibody, V domains shown)
VH: B3 VH
VL: B4 VL with Q3V, S30R, L32F, L33I, A34D, A51T, Q55E, S65T
notes: Vkappa-shuffled clone of 170B2 (keeps the 170B2 VH-CH1); also called VK_197B7
